The source of these data is publication PMC5575937.

Data set [1] addresses T1, ETV6H432R (Mus musculus (murine), UniProt P97360 329-446, C334S;H432R).
T1 sequence: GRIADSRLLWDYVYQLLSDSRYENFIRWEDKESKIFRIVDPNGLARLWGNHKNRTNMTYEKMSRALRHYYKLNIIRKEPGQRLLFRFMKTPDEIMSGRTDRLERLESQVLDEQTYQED
The data set is described as follows: EMSA. Background: A gel shift assay detects complexes by their altered migration in electrophoresis.

The target of data set [2] is T2, ETV6RAE (Mus musculus (murine), UniProt P97360 329-446, C334S;H432R;S435A;Q436E).
T2 sequence: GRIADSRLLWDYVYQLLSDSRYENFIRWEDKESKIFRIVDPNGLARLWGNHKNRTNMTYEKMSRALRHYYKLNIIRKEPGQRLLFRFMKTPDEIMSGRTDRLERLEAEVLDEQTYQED
Briefly: EMSA.

For data set [3], the target named is T3, ETV62C-red (Mus musculus (murine), UniProt P97360 329-446, C334S;A393C;V437C).
T3 sequence: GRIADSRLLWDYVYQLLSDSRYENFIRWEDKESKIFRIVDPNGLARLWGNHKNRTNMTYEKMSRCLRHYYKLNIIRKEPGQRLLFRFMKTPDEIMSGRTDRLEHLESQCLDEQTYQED
The data set is described as follows: NMR.

B1: 23-bp ETS consensus duplex (dsDNA)
DNA 1: CGGCCAAGCCGGAAGTGAGTGCC
DNA 2: GGCACTCACTTCCGGCTTGGCCG
The term Kd denotes the equilibrium constant for the complex coming apart. A low value points to tighter binding. Regarding B1, the Kd stood at 30 ± 10 nM in data set [1] and 90 ± 10 nM in data set [2].

B2: 15-bp ETS consensus duplex (dsDNA)
DNA 1: CAAGCCGGAAGTGAG
DNA 2: CTCACTTCCGGCTTG
On to B2, for which the binding result in data set [3] is “binds”.
